Test results reported in patent US20190071668.

Biological target: T1, Androgen receptor (AR) (Homo sapiens?) (UniProt P10275)
T1 sequence: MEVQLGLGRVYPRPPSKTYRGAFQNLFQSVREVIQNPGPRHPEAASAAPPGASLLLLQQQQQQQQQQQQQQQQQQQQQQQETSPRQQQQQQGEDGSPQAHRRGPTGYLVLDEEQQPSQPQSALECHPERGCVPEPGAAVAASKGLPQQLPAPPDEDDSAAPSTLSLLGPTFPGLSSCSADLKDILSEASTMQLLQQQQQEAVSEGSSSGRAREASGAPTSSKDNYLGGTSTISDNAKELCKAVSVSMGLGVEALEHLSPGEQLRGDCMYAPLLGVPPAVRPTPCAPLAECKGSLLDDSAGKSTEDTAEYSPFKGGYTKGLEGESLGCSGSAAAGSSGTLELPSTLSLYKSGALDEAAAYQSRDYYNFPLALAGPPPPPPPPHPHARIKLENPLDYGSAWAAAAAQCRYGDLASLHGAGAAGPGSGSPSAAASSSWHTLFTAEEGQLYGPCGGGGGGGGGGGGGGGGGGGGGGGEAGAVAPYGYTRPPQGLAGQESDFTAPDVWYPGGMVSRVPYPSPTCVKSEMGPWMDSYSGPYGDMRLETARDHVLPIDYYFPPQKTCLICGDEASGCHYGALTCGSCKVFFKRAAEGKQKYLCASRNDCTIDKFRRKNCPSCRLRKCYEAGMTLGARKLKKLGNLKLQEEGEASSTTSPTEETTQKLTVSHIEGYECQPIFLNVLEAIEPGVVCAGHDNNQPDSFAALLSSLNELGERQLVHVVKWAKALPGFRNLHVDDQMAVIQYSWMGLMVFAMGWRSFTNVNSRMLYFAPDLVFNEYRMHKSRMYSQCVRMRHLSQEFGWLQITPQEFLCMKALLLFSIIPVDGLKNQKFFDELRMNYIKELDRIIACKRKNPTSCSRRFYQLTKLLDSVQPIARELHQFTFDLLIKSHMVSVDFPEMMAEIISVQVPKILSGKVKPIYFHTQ
Assay: pulldown
Conditions: RIP; not significantly above background SLNCR

Substance: SLNCR1 delta 568-637
- binding signal (fold enrichment): 14
